We go through 60 variants from the Human Domainome abundance scans (Beltran et al. 2025).

First the molecules themselves.
B1: Cullin-9, residues 2234 to 2275; numbered along this chain, Q8IWT3 (parent)
chain: KRCPSCQAPIEKNEGCLHMTCAKCNHGFCWRCLKSWKPNHKD

± gives the uncertainty stated by the source.

In this data set the parent is B1. The experiment in a line: abundance fitness (aPCA) (normalised: wild type 0, dead -1); higher = more abundant; growth selection in yeast, the domain comes from the species named. Particulars: Homo sapiens.
Consider KRCPSCQAPIEKNEGCLHMTCAKCNQGFCWRCLKSWKPNHKD, for which the abundance fitness is -0.17 ± 0.11.
Under KRCPSCQAPIEKNEGCLHMTCAKFNHGFCWRCLKSWKPNHKD stands -0.534 ± 0.21; under KRCPSCQAPIEKNEGCLHMTCAKMNHGFCWRCLKSWKPNHKD, -0.574 ± 0.2.
Then KRCPSCQAPIEKNEGCLHMTCVKCNHGFCWRCLKSWKPNHKD, with -0.306 ± 0.12; and KRCPSCQAPIEKNEGCLHMTCLKCNHGFCWRCLKSWKPNHKD, with -0.282 ± 0.13; and KRCPSCQAPIEKNEGCLHMTCSKCNHGFCWRCLKSWKPNHKD, with -0.202 ± 0.12.
Then KRCPSCQAPIEKNEGCLHATCAKCNHGFCWRCLKSWKPNHKD, with -0.048 ± 0.095.
KRCPSCQAPIEKNEGCLHDTCAKCNHGFCWRCLKSWKPNHKD: the abundance fitness is 0.046 ± 0.13.
With KRCPSCQAPIEKNEGCLHITCAKCNHGFCWRCLKSWKPNHKD, the abundance fitness was -0.008 ± 0.19.
Under KRCPSCQAPIEKNEGCLHETCAKCNHGFCWRCLKSWKPNHKD stands -0.186 ± 0.1.
Then KRCPSCQAPIEKNEGCLHQTCAKCNHGFCWRCLKSWKPNHKD, with -0.019 ± 0.12.
Then KRCPSCQAPIEKNEGCLHMTCAKCNHGFCWYCLKSWKPNHKD, with 0.212 ± 0.17; and KRCPSCQAPIEKNEGCLHMTCAKCNHGFCWTCLKSWKPNHKD, with 0.03 ± 0.11.
Consider KRCPSCQAPIEKNEGCLHMTCAKCNHGFCWICLKSWKPNHKD, for which the abundance fitness is -0.072 ± 0.17.
Then KRCPSCQAPIEKNEGCLHMTCAKCNHGFCWECLKSWKPNHKD, with 0.162 ± 0.091; and KRCPSCQAPIEKNEGCLHMTCAKCNHGFCWHCLKSWKPNHKD, with 0.078 ± 0.15.
As to KRCPSCQAPIEKNEGCLHMTCAKCNHGFCWWCLKSWKPNHKD, the abundance fitness was -0.025 ± 0.096.
Turning to KRCPSCQAPIEKNEGCLHMTCAKCNHGFCWGCLKSWKPNHKD, the abundance fitness was 0.128 ± 0.081.
With KRCPSCQAPIEKNEGCNHMTCAKCNHGFCWRCLKSWKPNHKD, the abundance fitness was -0.858 ± 0.21.
Then KRCPSCQAPIEKNEGCRHMTCAKCNHGFCWRCLKSWKPNHKD, with -0.614 ± 0.085; and KRCPSCQAPIEKNEGCGHMTCAKCNHGFCWRCLKSWKPNHKD, with -0.062 ± 0.075.
Take KRCPSCQAPIEKNEGCLHMTCAKCNHGFCWRCLKSWKMNHKD: the abundance fitness was -0.364 ± 0.2.
Under KRCPSCQAPIEKNEGCLHMTCAKCNHGFCWRCLKSWKSNHKD stands -0.26 ± 0.1; under KRCPSCQAPIEKNEGCLHMTCAKCNHGFCWRCLKSWKLNHKD, -0.178 ± 0.11; under KRCPSCQAPIAKNEGCLHMTCAKCNHGFCWRCLKSWKPNHKD, -0.185 ± 0.14.
Then KRCPSCQAPAEKNEGCLHMTCAKCNHGFCWRCLKSWKPNHKD, with -0.193 ± 0.11; and KRCPSCQAPWEKNEGCLHMTCAKCNHGFCWRCLKSWKPNHKD, with -0.555 ± 0.1; and KRCPSCQAPNEKNEGCLHMTCAKCNHGFCWRCLKSWKPNHKD, with -0.534 ± 0.21.
Then KRCPSCQAPIEKNEGCLHMTCAKCNHGFCWRMLKSWKPNHKD, with -0.545 ± 0.14; and KRCPSCQAPIEKNEGCLHMTCAKCNHGFCWRCLKSWKPNSKD, with 0.066 ± 0.11.
KRCPSCQAPIEKNEGCLHMTCAKCNHGFCWRCLKSWKPNTKD: the abundance fitness was -0.359 ± 0.13.
On to KRCPSCQAPIEKNEGCLHMTCAKCNHGFCWRCLKSWKPNGKD, for which the abundance fitness is -0.102 ± 0.073.
With KRCPSCQAPIEKNEGCLHMTCAKCNHGFCWRCLKSWKPNHND, the abundance fitness is -0.132 ± 0.37.
Then KRCPSCQAPIEKNEGCLHMTCAKCNHGFCWRCLKSWKPNHHD, with 0.256 ± 0.21.
For KRCCSCQAPIEKNEGCLHMTCAKCNHGFCWRCLKSWKPNHKD, the abundance fitness worked out at 0.182 ± 0.12.
Under KRCGSCQAPIEKNEGCLHMTCAKCNHGFCWRCLKSWKPNHKD stands 0.056 ± 0.07.
Under KRCTSCQAPIEKNEGCLHMTCAKCNHGFCWRCLKSWKPNHKD stands 0.002 ± 0.1; under KRCRSCQAPIEKNEGCLHMTCAKCNHGFCWRCLKSWKPNHKD, -0.41 ± 0.089.
Under KRCPSCQAPIEKNEGCLCMTCAKCNHGFCWRCLKSWKPNHKD stands -0.425 ± 0.14; under KRCPSCQAPIEKNEGCLPMTCAKCNHGFCWRCLKSWKPNHKD, -0.427 ± 0.098.
Consider KRCPSCQAPIEVNEGCLHMTCAKCNHGFCWRCLKSWKPNHKD, for which the abundance fitness is -0.2 ± 0.089.
Under KRCPSCQAPIEKNEGCLHMTCAKCNHGFCWRCLKSTKPNHKD stands 0.147 ± 0.1.
Then KRCPSCQAPIEKNEGCLHMTCAKCNHGFCWRCLKSSKPNHKD, with 0.118 ± 0.088; and KRCPSCQAPIEKNEGCLHMTCAKCNHGFCWRCLKSYKPNHKD, with -0.17 ± 0.24; and KRCPSCQAPIEKNEGCLHMTCAKCNHGFCWRCLKSQKPNHKD, with 0.082 ± 0.13.
For the variant KRCPSCQAPIEKNEGCLHMTCAKCNHGFCWRCLKSFKPNHKD, the abundance fitness is -0.194 ± 0.19.
Take KRCPSCQAPIEKNEGCLHMTCAKCNHGFCWRCLKSDKPNHKD: the abundance fitness stood at 0.255 ± 0.12.
Take KRCPSCQAPIEKNEGCLHMTCAKCKHGFCWRCLKSWKPNHKD: the abundance fitness was -0.092 ± 0.14.
Then KRCPSCQAPIEKNEGCLHMTCAKCSHGFCWRCLKSWKPNHKD, with 0.03 ± 0.1; and KRCPSCQAPIEKNEGCLHMTCAKCEHGFCWRCLKSWKPNHKD, with -0.045 ± 0.087; and KRCPSCQAPIEKNEGCLHMTCAKCVHGFCWRCLKSWKPNHKD, with -0.265 ± 0.088.
Under KRCPSCQAPIEKNEGCLHMTCAKCMHGFCWRCLKSWKPNHKD stands -0.06 ± 0.14; under KRCPSCQAPIEKNEGCLHMTCAKCAHGFCWRCLKSWKPNHKD, -0.127 ± 0.091; under KRCPSCQAPIEKNEGCLHMTCASCNHGFCWRCLKSWKPNHKD, -0.174 ± 0.1.
Under KRCPSCQAPIEKNEGCLHMTCAPCNHGFCWRCLKSWKPNHKD stands -0.695 ± 0.12; under KRCPSCQAPIEKNEGCLHMTCAKCNHGFCWRCLKSWKPWHKD, -0.176 ± 0.087; under KRCPSCQAPIEKNEGRLHMTCAKCNHGFCWRCLKSWKPNHKD, 0.227 ± 0.073.
On to KRCPSCQAPIEKNEGDLHMTCAKCNHGFCWRCLKSWKPNHKD, for which the abundance fitness was determined as 0.544 ± 0.092.
Then KRCPSCQAPIEKNEGCLHMTCAKCNHGFEWRCLKSWKPNHKD, with -0.432 ± 0.11.
Then KRCPSCQAPIEKNEGCLHMTCAKCNHGFVWRCLKSWKPNHKD, with -0.969 ± 0.11.
